Source: patent US20220073608A1 (JIANGSU HUAIYU PHARMACEUTICAL, published 2022)
Residue numbers refer to the chain shown, from its start.

T1: biotinylated hSEMA4D ECD-His (human, UniProt Q92854 22-734, biotinylated with Biotin-X-X-NHS at a molar ratio of 8:1; sites not stated)
T1 construct: also called biotinylated immunogen; not shown: His tag of the pCP vector
T1 sequence: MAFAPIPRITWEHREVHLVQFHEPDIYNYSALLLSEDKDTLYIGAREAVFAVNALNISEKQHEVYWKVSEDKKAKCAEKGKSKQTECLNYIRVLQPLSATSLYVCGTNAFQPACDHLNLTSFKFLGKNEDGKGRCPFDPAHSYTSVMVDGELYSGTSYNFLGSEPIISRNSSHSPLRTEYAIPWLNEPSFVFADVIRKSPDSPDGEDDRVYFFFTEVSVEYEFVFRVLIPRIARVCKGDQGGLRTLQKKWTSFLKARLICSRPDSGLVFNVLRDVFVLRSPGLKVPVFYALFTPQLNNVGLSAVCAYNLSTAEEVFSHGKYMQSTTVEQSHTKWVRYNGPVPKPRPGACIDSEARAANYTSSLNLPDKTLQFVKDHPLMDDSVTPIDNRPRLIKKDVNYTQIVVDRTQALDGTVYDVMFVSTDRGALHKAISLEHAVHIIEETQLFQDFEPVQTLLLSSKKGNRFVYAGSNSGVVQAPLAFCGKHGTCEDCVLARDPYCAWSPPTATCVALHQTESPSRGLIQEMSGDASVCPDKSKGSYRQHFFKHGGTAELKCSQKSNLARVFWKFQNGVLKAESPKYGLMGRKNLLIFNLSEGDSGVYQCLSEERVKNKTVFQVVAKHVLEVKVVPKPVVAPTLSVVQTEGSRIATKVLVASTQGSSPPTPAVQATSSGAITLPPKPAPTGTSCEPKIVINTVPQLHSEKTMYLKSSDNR

B1: 32C8F10 (antibody, V domains shown)
VH: EVQLQQSGAELVRPGASVKLSCTASGFNIKDEYIHWVKQRPEQGLEWIGWIDPANGHTEYASRFQAKATITADTSSNTAYLQLSSLTSEDTAVYYCTTGDYDGFAYWGQGTLVTVST
VL: QIVLTQSPAIMSASPGEKVTISCSARSSVSYMYWYQQKPGSSPKPWIYRTSNLASGVPARFSGSGSGTSYSLTISSMEAEDAATYYCQHYHTYPYTFGGGTKLEIK
notes: Mouse monoclonal antibody purified from hybridoma supernatant on protein A
B2: 31C11G2 (antibody, V domains shown)
VH: B1 VH with A105V
VL: B1 VL with S22F
notes: as for B1
B3: 31G10C5 (antibody, V domains shown)
VH: B1 VH with E32D, T58I, R63N, A105T
VL: B1 VL
notes: as for B1

biological target: T1, biotinylated hSEMA4D ECD-His; assay: FACS, blocking of biotinylated hSEMA4D ECD-His binding to 293F hPlexin B1 cells; Ab 0.0213 nM
Protocol: (§1) The medium was aspirated, the cells were washed once with PBS buffer (purchased from Invitrogen), and then treated with cell dissociation fluid (TrypLE™ Express Enzyme, purchased from Life technology), and the cells were collected. After the cells counted, the cells were washed once with PBS phosphate buffer, and diluted to 1×10⁶ cells per milliliter, and added to the 96-well FACS reaction plate as 100 μL per well. 2% (w/w) fetal calf serum was added to PBS phosphate buffer as FACS buffer, with which the cells were washed once by centrifugation at 2000 rpm 4° C. Meanwhile, the purified leading antibody and biotinylated hSEMA4D ECD-His were mixed and incubated on ice for 30 minutes. Then 100 μL of the mixture was added to each well and the plate was incubated on ice for 1 hour. […] Cells were washed 2 times by centrifugation with FACS buffer. The cells were suspended with 200 μL of FACS buffer, and FACS (FACS Verse, purchased from BD) was used to detect and analyze the results. The results are shown in FIGS. 11A-11B and Tables 20-21.

| MFI (residual ligand binding) | Binder |
| --- | --- |
| 463 | B1 |
| 547 | B2 |
| 466 | B3 |

biological target: T1, biotinylated hSEMA4D ECD-His; assay: FACS, blocking of biotinylated hSEMA4D ECD-His binding to 293F hPlexin B1 cells; Ab 13.3 nM
Protocol: as §1

| MFI (residual ligand binding) | Binder |
| --- | --- |
| 204 | B1 |
| 266 | B2 |
| 209 | B3 |

biological target: T1, biotinylated hSEMA4D ECD-His; assay: FACS, blocking of biotinylated hSEMA4D ECD-His binding to 293F hPlexin B1 cells; Ab 0.107 nM
Protocol: as §1

| MFI (residual ligand binding) | Binder |
| --- | --- |
| 454 | B1 |
| 530 | B2 |
| 460 | B3 |

biological target: T1, biotinylated hSEMA4D ECD-His; assay: FACS, blocking of biotinylated hSEMA4D ECD-His binding to 293F hPlexin B1 cells; Ab 66.7 nM
Protocol: as §1

| MFI (residual ligand binding) | Binder |
| --- | --- |
| 55.5 | B1 |
| 54.2 | B2 |
| 54.2 | B3 |

biological target: T1, biotinylated hSEMA4D ECD-His; assay: FACS, blocking of biotinylated hSEMA4D ECD-His binding to 293F hPlexin B1 cells; Ab 333 nM
Protocol: as §1

| MFI (residual ligand binding) | Binder |
| --- | --- |
| 85.1 | B1 |
| 50.8 | B2 |
| 45.4 | B3 |

biological target: T1, biotinylated hSEMA4D ECD-His; assay: FACS, blocking of biotinylated hSEMA4D ECD-His binding to 293F hPlexin B1 cells; Ab 0.00427 nM
Protocol: as §1

| MFI (residual ligand binding) | Binder |
| --- | --- |
| 471 | B1 |
| 544 | B2 |
| 470 | B3 |

biological target: T1, biotinylated hSEMA4D ECD-His; assay: FACS, blocking of biotinylated hSEMA4D ECD-His binding to 293F hPlexin B1 cells; Ab 0.534 nM
Protocol: as §1

| MFI (residual ligand binding) | Binder |
| --- | --- |
| 420 | B1 |
| 513 | B2 |
| 427 | B3 |

biological target: T1, biotinylated hSEMA4D ECD-His; assay: FACS, blocking of biotinylated hSEMA4D ECD-His binding to 293F hPlexin B1 cells; Ab 2.67 nM
Protocol: as §1

| MFI (residual ligand binding) | Binder |
| --- | --- |
| 333 | B1 |
| 415 | B2 |
| 334 | B3 |
